Patent US20130115227A1 (Merck Sharp & Dohme, published 2013)

Experiments:
[1] = target: T1, amyloid β (Aβ)-derived diffusible ligands (ADDLs) (UniProt P05067 672-713); experiment: ELISA, plate coated with ADDLs (50 pmol/well), anti-human IgG-alkaline phosphatase, luminescence; antibody kept one month at 4 °C
T1 construct: domain: Aβ1-42; Soluble oligomers of Aβ1-42, with the number of chains per oligomer not fixed; They were prepared from HFIP film in DMSO/F12 and enriched on a 50 kDa filter; The result sentences say 'ADDLs'; also called ADDL oligomers; soluble …
Experimental: (§1) The codon AAT for N was mutated to AGT for S in 19.3S33 (SEQ ID NO: 55), ACT for T in 19.3T33 (SEQ ID NO: 56), GAA for E in 19.3E33 (SEQ ID NO: 67), or GAT for D in 19.3D33 (SEQ ID NO: 68), and the new condons in that position were confirmed by DNA sequencing. […] The expression and purification methods were described above in this example.
(§2) Determination of EC50. High protein binding plates (Costar, Corning, Lowell, Mass.), were coated with target ligand in PBS overnight at 4° C. The concentration of coating protein was 100 pmol/well for Aβ40 (American Peptide, Sunnyvale, Calif.) and 50 pmol/well for ADDLs. ADDLs were generated as described in Example 1B. Next day, plates were washed five times with PBS+0.05% Tween-20 (Sigma Aldrich, St. Louis, Mo.) and blocked overnight with Casein blocking buffer (ThermoScientific, Waltham, Mass.) and 0.05% Tween-20. […] After 2 hours at room temperature incubation, the plates were washed and alkaline phosphatase conjugated anti-human IgG (ThermoScientific, Waltham, Mass.) was added at 0.08 μg/ml. After 45 minutes at room temperature incubation, the plates were washed and Tropix® CDP®-Star chemiluminescent substrate (Life Technologies™, Carlsbad, Calif.) was added. Luminescence was detected after 30 minutes on an EnVision® microplate reader (PerkinElmer, Waltham, Mass.).

[2] = target: T1, amyloid β (Aβ)-derived diffusible …; experiment: ELISA, plate coated with ADDLs (50 pmol/well), anti-human IgG-alkaline phosphatase, luminescence; antibody kept one month at 25 °C
Experimental: as §1, §2

[3] = target: T1, amyloid β (Aβ)-derived diffusible …; experiment: ELISA, plate coated with ADDLs (50 pmol/well), anti-human IgG-alkaline phosphatase, luminescence; antibody not stored (0 timepoint)
Experimental: as §2, with “Mass.). Curve fits were completed using GraphPad Prism (GraphPad Software, Inc., San Diego, Calif.) software.” for “Mass.).”

[4] = target: T1, amyloid β (Aβ)-derived diffusible …; experiment: ELISA, plate coated with ADDLs (50 pmol/well), anti-human IgG-alkaline phosphatase, luminescence; antibody kept one month at 40 °C
Experimental: as §1, §2

[5] = target: T1, amyloid β (Aβ)-derived diffusible …; experiment: ELISA, plate coated with ADDLs (50 pmol/well), 12 point antibody titration, anti-human IgG-alkaline phosphatase, luminescence
Experimental: as §2, with “Mass.). Curve fits were completed using GraphPad Prism (GraphPad Software, Inc., San Diego, Calif.) software.” for “Mass.).”

[6] = target: T1, amyloid β (Aβ)-derived diffusible …; experiment: phage/Fab ELISA on ADDLs, anti-M13-HRP detection
Experimental: Biotinylated ADDLs (bADDLs) or monomer Aβ1-40 or Aβ1-42 was added to a high-capacity streptavidin-coated plate (Sigma-Aldrich, St. Louis, Mo.) with 100 μL per well of coating reagent in PBS at 1 μM and incubated for two hours at room temperature. The plates were washed in PBS with 0.05% Tween (six times) and then PBS alone (three times) prior to blocking wells with 5% non-fat dry milk in PBS for one hour at room temperature. The wells were then washed and a serial dilution of antibody samples added to the plates and allowed to bind for two hours at room temperature. After incubation and washing, the antibody binding was detected with a goat anti-human IgG-Fc secondary antibody conjugated to horse radish peroxidase (HRP) (1:1,000; one hour at room temperature). The HRP label was visualized with tetramethyl benzidine (Virolabs, Chantilly, Va.) as a substrate and read at 450 nm on a microplate reader.
After each round of panning, single colonies were randomly picked to produce phage in 96-well plates. The procedures for phage preparation in 96-well plate were similar to that described above except no phage precipitation step was used. Culture plates containing colonies growing in 120 μL of 2×TY medium with 100 μg/ml ampicillin and 0.1% glucose were incubated overnight in a HiGro® shaker (Genomic Solutions, Ann Arbor, Mich.) at 30° C. with shaking at 450 rpm. The phage supernatants (about 100 μL) were directly used for analysis in the ADDL binding ELISA described above. One difference is that the binding of phage to ADDLs was detected with an anti-M13-antibody conjugated to HRP (Amersham Bioscience, GE Healthcare, Waukesha, Wis.).

[7] = target: T1, amyloid β (Aβ)-derived diffusible …; experiment: KinExA; constant for Aβ1-40 monomer over constant for ADDLs
[8] = target: T1, amyloid β (Aβ)-derived diffusible …; experiment: KinExA, equilibrium constant in solution
[9] = target: T1, amyloid β (Aβ)-derived diffusible …; experiment: Biacore (SPR)
[10] = target: T1, amyloid β (Aβ)-derived diffusible …; experiment: Biacore (SPR); affinity for Aβ1-40 monomer over affinity for ADDLs

T1 sequence (P05067 672-713 limits assumed): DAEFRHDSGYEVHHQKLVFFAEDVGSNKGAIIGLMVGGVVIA

B1: anti-ADDL antibody 19.3 (antibody, human IgG2, kappa, V domains shown)
VH: EVQLVESGGGLVQPGGSLRLSCAASGFTFSSFGMHWVRQAPGKGLEWVAYISRGSSTIYYADTVKGRFTISRDNAKNSLYLQMNSLRAEDTAVYYCARGITTALDYWGQGTLVTVSS
VL: DVVMTQSPLSLPVTPGEPASISCRSSQSIVHSNGNTYLEWYLQKPGQSPQLLIYKASNRFSGVPDRFSGSGSGTDFTLKISRVEAEDVGVYYCFQGSRLGPSFGQGTKLEIKR
notes: The same paragraph also says all VH were cloned into an IgG1 expression vector; copies: 2 + 2
[1]
  EC50 (read off the curve): ~2 nM
[2]
  EC50 (read off the curve): ~2 nM
[3]
  EC50 (read off the curve): ~1 nM
[4]
  EC50 (read off the curve): ~6 nM

B2: anti-ADDL antibody 19.3S33 (antibody, V domains shown)
VH: EVQLVESGGGLVQPGGSLRLSCAASGFTFSSFGMHWVRQAPGKGLEWVAYISRGSSTIYYADTVKGRFTISRDNAKNSLYLQMNSLRAEDTAVYYCARGITTALDYWGQGTLVTVSS
VL: DVVMTQSPLSLPVTPGEPASISCRSSQSIVHSSGNTYLEWYLQKPGQSPQLLIYKASNRFSGVPDRFSGSGSGTDFTLKISRVEAEDVGVYYCFQGSRLGPSFGQGTKLEIKR
[5]
  binding result: binds

B3: anti-ADDL antibody 19.3T33 (antibody, V domains shown)
VH: EVQLVESGGGLVQPGGSLRLSCAASGFTFSSFGMHWVRQAPGKGLEWVAYISRGSSTIYYADTVKGRFTISRDNAKNSLYLQMNSLRAEDTAVYYCARGITTALDYWGQGTLVTVSS
VL: DVVMTQSPLSLPVTPGEPASISCRSSQSIVHSTGNTYLEWYLQKPGQSPQLLIYKASNRFSGVPDRFSGSGSGTDFTLKISRVEAEDVGVYYCFQGSRLGPSFGQGTKLEIKR
[5]
  binding result: binds

B4: Fab clone 14.2 (phage-displayed) (Fab, V domains shown)
VH: EVQLVESGGGLVQPGGSLRLSCAASGFTFSSFGMHWVRQAPGKGLEWVAYISRGSSTIYYADTVKGRFTISRDNAKNSLYLQMNSLRAEDTAVYYCARGITTALDYWGQGTLVTVSS
VL: DVVMTQSPLSLPVTPGEPASISCRSSQSIVHSNGNTYLEWYLQKPGQSPQLLIYKASNRFSGVPDRFSGSGSGTDFTLKISRVEAEDVGVYYCFQGSRVPPGFGQGTKLEIK
notes: VH is deduced from the parental VH being kept in the library
[6]
  binding result: binds

B5: Fab clone 7.2 (phage-displayed) (Fab, V domains shown)
VH: EVQLVESGGGLVQPGGSLRLSCAASGFTFSSFGMHWVRQAPGKGLEWVAYISRGSSTIYYADTVKGRFTISRDNAKNSLYLQMNSLRAEDTAVYYCARGITTALDYWGQGTLVTVSS
VL: DVVMTQSPLSLPVTPGEPASISCRSSQSIVHSNGNTYLEWYLQKPGQSPQLLIYKASNRFSGVPDRFSGSGSGTDFTLKISRVEAEDVGVYYCFQGSYAPPGFGQGTKLEIK
notes: as for B4
[6]
  binding result: binds

B6: Fab clone 9.2 (phage-displayed) (Fab, V domains shown)
VH: EVQLVESGGGLVQPGGSLRLSCAASGFTFSSFGMHWVRQAPGKGLEWVAYISRGSSTIYYADTVKGRFTISRDNAKNSLYLQMNSLRAEDTAVYYCARGITTALDYWGQGTLVTVSS
VL: DVVMTQSPLSLPVTPGEPASISCRSSQSIVHSNGNTYLEWYLQKPGQSPQLLIYKASNRFSGVPDRFSGSGSGTDFTLKISRVEAEDVGVYYCFQGSRAPPFFGQGTKLEIK
notes: as for B4
[6]
  binding result: binds

B7: Fab clone 11.4 (phage-displayed) (Fab, V domains shown)
VH: EVQLVESGGGLVQPGGSLRLSCAASGFTFSSFGMHWVRQAPGKGLEWVAYISRGSSTIYYADTVKGRFTISRDNAKNSLYLQMNSLRAEDTAVYYCARGITTALDYWGQGTLVTVSS
VL: DVVMTQSPLSLPVTPGEPASISCRSSQSIVHSNGNTYLEWYLQKPGQSPQLLIYKASNRFSGVPDRFSGSGSGTDFTLKISRVEAEDVGVYYCFQGSRVPVRFGQGTKLEIK
notes: as for B4
[6]
  binding result: binds

B8: Fab clone 13.1 (phage-displayed) (Fab, V domains shown)
VH: EVQLVESGGGLVQPGGSLRLSCAASGFTFSSFGMHWVRQAPGKGLEWVAYISRGSSTIYYADTVKGRFTISRDNAKNSLYLQMNSLRAEDTAVYYCARGITTALDYWGQGTLVTVSS
VL: DVVMTQSPLSLPVTPGEPASISCRSSQSIVHSNGNTYLEWYLQKPGQSPQLLIYKASNRFSGVPDRFSGSGSGTDFTLKISRVEAEDVGVYYCFQGSKAHPSFGQGTKLEIK
notes: as for B4
[6]
  binding result: binds

B9: humanized anti-ADDL antibody h3B3 (antibody, V domains shown)
VH: EVQLVESGGGLVQPGGSLRLSCAASGFTFSSFGMHWVRQAPGKGLEWVAYISRGSSTIYYADTVKGRFTISRDNAKNSLYLQMNSLRAEDTAVYYCARGITTALDYWGQGTLVTVSS
VL: DVVMTQSPLSLPVTPGEPASISCRSSQSIVHSNGNTYLEWYLQKPGQSPQLLIYKASNRFSGVPDRFSGSGSGTDFTLKISRVEAEDVGVYYCFQGSHVPPTFGQGTKLEIK
notes: Parental antibody; also called humanized 3B3; h3B3 (parental)
[7]
  Ratio (Aβ monomer/ADDL): 13.6
[8]
  Kd: 3.3 nM
[9]
  Kd: 10 nM
[10]
  Ratio (Aβ monomer/ADDL): 10
